# Data published in patent publication US20240034774A1 (Gilead, published 2024).
# Experiments:
# BSA = BSA (UniProt P02769 25-607); assay: single-point ELISA, BSA control
# gp120 Bal = gp120 Bal (HIV (Bal)); assay: single-point ELISA at EC50 conc. of A-1
# gp120 SHIV SF162 P3 = gp120 SHIV SF162 P3 (SHIV SF162 P3); assay: single-point ELISA at EC50 conc. of A-1
# gp120 CAAN = gp120 CAAN (HIV (CAAN)); assay: single-point ELISA at EC50 conc. of A-1
binder,measurement,setting,value
"1.4.1-1 (antibody, human IgG1, kappa) heavy: QVQLVQSGAAVTKPGASVRVSCEASGYNIRDYFIHWWRQAPGQGLQWVGWINPKTGQPNNPRQFQGRVSLTRHASWDFDTFSFYMDLKALRSDDTAVYFCARQRSDYWDFDVWGSGTQVTVSSASTKGPSVFPLAPSSKSTSGGTAALGCLVKDYFPEPVTVSWNSGALTSGVHTFPAVLQSSGLYSLSSVVTVPSSSLGTQTYICNVNHKPSNTKVDKKVEPKSCDKTHTCPPCPAPELLAGPDVFLFPPKPKDTLMISRTPEVTCVVVDVSHEDPEVKFNWYVDGVEVHNAKTKPREEQYNSTYRVVSVLTVLHQDWLNGKEYKCKVSNKALPLPEEKTISKAKGQPREPQVYTLPPSREEMTKNQVSLTCLVKGFYPSDIAVEWESNGQPENNYKTTPPVLDSDGSFFLYSKLTVDKSRWQQGNVFSCSVLHEALHSHYTQKSLSLSPGK light: DIQMTQSPSSLSASVGDTVTITCQANGYLNWYQQRRGKAPKLLIYDGSKLERGVPSRFSGRRWGQEYNLTINNLQPEDIATYFCQVYEFVVPGTRLDLKRTVAAPSVFIFPPSDEQLKSGTASVVCLLNNFYPREAKVQWKVDNALQSGNSQESVTEQDSKDSTYSLSSTLTLSKADYEKHKVYACEVTHQGLSSPVTKSFNRGEC",ELISA A450,BSA,0.06 A450
same,ELISA A450,gp120 Bal,1.04 A450
same,ELISA A450,gp120 SHIV SF162 P3,1.19 A450
same,ELISA A450,gp120 CAAN,0.96 A450
"1.5.1-1 (antibody, human IgG1, kappa) heavy: QVQLVQSGAAVTKPGASVRVSCKASGYNIRDYFIHWWRQAPGQGLQWVGWINPKTGQPNNPRQFQGRVSLTRHASWDFDTFSFYMDLKALRSDDTAVYFCARQRSDYWDFDVWGSGTQVTVSSASTKGPSVFPLAPSSKSTSGGTAALGCLVKDYFPEPVTVSWNSGALTSGVHTFPAVLQSSGLYSLSSVVTVPSSSLGTQTYICNVNHKPSNTKVDKKVEPKSCDKTHTCPPCPAPELLAGPDVFLFPPKPKDTLMISRTPEVTCVVVDVSHEDPEVKFNWYVDGVEVHNAKTKPREEQYNSTYRVVSVLTVLHQDWLNGKEYKCKVSNKALPLPEEKTISKAKGQPREPQVYTLPPSREEMTKNQVSLTCLVKGFYPSDIAVEWESNGQPENNYKTTPPVLDSDGSFFLYSKLTVDKSRWQQGNVFSCSVLHEALHSHYTQKSLSLSPGK light: DIQMTQSPSSLSASVGDTVTITCQANGYLNWYQQRRGKAPKLLIYDGSKLERGVPSRFSGRRWGQEYNLTINNLQPEDIATYFCQVYEFVVPGTRLDLKRTVAAPSVFIFPPSDEQLKSGTASVVCLLNNFYPREAKVQWKVDNALQSGNSQESVTEQDSKDSTYSLSSTLTLSKADYEKHKVYACEVTHQGLSSPVTKSFNRGEC",ELISA A450,BSA,0.06 A450
same,ELISA A450,gp120 Bal,0.92 A450
same,ELISA A450,gp120 SHIV SF162 P3,1.15 A450
same,ELISA A450,gp120 CAAN,1.07 A450
"1.6.1-1 (antibody, human IgG1, kappa) heavy: QVQLLQSGAEVTKPGASVRVSCEASGYNIRDYFIHWWRQAPGQGLQWVGWINPKTGQPNNPRQFQGRVSLTRHASWDFDTFSFYMDLKALRSDDTAVYFCARQRSDYWDFDVWGSGTQVTVSSASTKGPSVFPLAPSSKSTSGGTAALGCLVKDYFPEPVTVSWNSGALTSGVHTFPAVLQSSGLYSLSSVVTVPSSSLGTQTYICNVNHKPSNTKVDKKVEPKSCDKTHTCPPCPAPELLAGPDVFLFPPKPKDTLMISRTPEVTCVVVDVSHEDPEVKFNWYVDGVEVHNAKTKPREEQYNSTYRVVSVLTVLHQDWLNGKEYKCKVSNKALPLPEEKTISKAKGQPREPQVYTLPPSREEMTKNQVSLTCLVKGFYPSDIAVEWESNGQPENNYKTTPPVLDSDGSFFLYSKLTVDKSRWQQGNVFSCSVLHEALHSHYTQKSLSLSPGK light: DIQMTQSPSSLSASVGDTVTITCQANGYLNWYQQRRGKAPKLLIYDGSKLERGVPSRFSGRRWGQEYNLTINNLQPEDIATYFCQVYEFVVPGTRLDLKRTVAAPSVFIFPPSDEQLKSGTASVVCLLNNFYPREAKVQWKVDNALQSGNSQESVTEQDSKDSTYSLSSTLTLSKADYEKHKVYACEVTHQGLSSPVTKSFNRGEC",ELISA A450,BSA,0.06 A450
same,ELISA A450,gp120 Bal,0.95 A450
same,ELISA A450,gp120 SHIV SF162 P3,1.1 A450
same,ELISA A450,gp120 CAAN,0.9 A450
